In patent US20210107981A1 (SUTRO BIOPHARMA, published 2021) one finds Kd, koff and kon data, which are given here for 17 molecules.

Experiment [1] concerns the target T1, Human PD-1 (ACROBiosystems, Inc., Catalog No. PD1-H5221) (human, UniProt Q15116 25-167).
T1 construct: Bought recombinant protein; also called huPD1-His; PD-1-his; not shown: His tag of the bought protein (huPD1-His)
The experiment can be described thus: SPR (Biacore), scFv captured on anti-FLAG, PD-1 as analyte. On the procedure: Monoclonal anti-FLAG M2 IgG (Sigma-Aldrich #F9291) was immobilized onto a CMS chip (GE Life Sciences) using amine coupling chemistry (from Amine Coupling Kit, GE Life Sciences). The immobilization steps were carried out at a flow rate of 25 μl/min in 1×HBS-EP+ buffer (GE Life Sciences; 10× Stock diluted before use). The sensor surfaces were activated for 7 min with a mixture of NHS (0.05 M) and EDC (0.2 M). The Anti-FLAG M2 IgG was injected over all 4 flow cells at a concentration of 25 μg/ml in 10 mM sodium acetate, pH 4.5, for 7 min. Ethanolamine (1 M, pH 8.5) was injected for 7 min to block any remaining activated groups.
Off-rate and kinetic binding experiments were performed at 25° C. using 1×HBS-EP+ buffer. Test and control antibodies were injected over the Anti-FLAG surface at concentrations of 5-10 μg/mL for 12 seconds at a flow rate of 10 μl/min on flow cells 2, 3 and 4, followed by a buffer wash for 30 seconds at the same flow rate. Kinetic characterization of antibody samples was carried out with a single concentration of antigen (for off-rate ranking) or a 1:2 dilution series of antigen (for kinetic characterization) and 1 injection of 0 nM antigen (i.e., buffer alone). After capturing ligand (anti-PD-1 antibody) on the anti-FLAG surface, the analyte (huPD1-His) was bound at 50, 25, 12.5, 6.25 and 0 nM for 180 seconds, followed by a 600 second dissociation phase at a flow rate of 50 μl/min. Between each ligand capture and analyte binding cycle, regeneration was carried out using 2 injections of 10 mM glycine pH 2.0 for 30 seconds at 30 μL/min, followed by a 30 second buffer wash step.
The data was fit with the Biacore T200 Evaluation software, using a 1:1 Langmuir binding model. KD (affinity, nM) was determined as a ratio of the kinetic rate constants calculated from the fits of the association and dissociation phases.

Experiment [2] addresses T1, Human PD-1 (ACROBiosystems, Inc., …). The experiment in a line: SPR (Biacore), IgG as ligand, PD-1-his as sample. In general terms: SPR reads the build-up and loss of mass on a sensor chip optically.
Experiment [3] addresses T2, human PD-1 expressed on the cell surface (CHO-PD1 cells) (human, UniProt Q15116 25-288).
T2 construct: Also used here as the target for native PD-1 on human PBMC / T cells in the functional (IFN-g) assays; also called CHO cell line overexpressing human PD-1; Cell-Surface Human PD-1 antigen
The experiment can be described thus: FACS cell binding on CHO cells expressing human PD-1. On the procedure: (§1) A mix of parental CHO cells and CHO-PD1 cells was prepared as follows: Parental CHO cells were washed 2× in PBS then incubated in PBS containing 1 μM CellTrace™ Oregon Green488® (Life Technologies) at 37° C. for 30 minutes. Cells were then washed 2× with RPMI w/10% fetal calf serum (FCS), washed 2× with FACS buffer (PBS w/2% FCS), suspended thoroughly in ice-cold FACS buffer at a final concentration of 2×10⁶ cells/mL and kept on ice. CHO-PD1 cells were similarly washed with FACS buffer and kept on ice at 2×10⁶ cells/mL. Parental CHO cells and CHO-PD1 cells were then mixed to obtain a 1:1 cell suspension and seeded at 100 μL per well on 96 well polypropylene plates. Plates were spun at 1500 rpm for 5 minutes and cell pellets were suspended in 50 μL FACS buffer containing 6-12 point dilutions of anti-PD-1 variants starting from concentrations of −100-200 nM antibody, dispensed using BioMek FX (Beckman Coulter). Cells were then incubated on ice for 1 hr, washed with FACS buffer and incubated for 1 hr on ice with 50 μL FACS buffer containing 2.5 μg/ml R-phycoerythrin-conjugated goat anti-Human IgG (Jackson ImmunoResearch) or AF647-conjugated goat anti-mouse IgG (Life Technologies) dispensed using BioMek FX (Beckman Coulter). Cells were then washed 2× with FACS buffer and fixed for 10 minutes in 200 μL PBS with 2% paraformaldehyde (PFA) prior to fluorescence detection. Samples were acquired using a Becton Dickinson LSRII FACS. Mean Fluorescence Intensity of PD-1 antibody binding was analyzed using FlowJo® software (Tree Star, Inc.).
The affinity of the IgGs for cell-surface expressed human PD-1 were measured according to Example 6, above.

Experiment [4] deals with T3, cynomolgus PD-1 expressed on CHO cells (cynomolgus, UniProt B0LAJ3 25-288).
T3 construct: also called Cell-Surface Cynomolgus PD-1 antigen
T3 sequence (B0LAJ3 entry or part of it limits assumed, form in doubt): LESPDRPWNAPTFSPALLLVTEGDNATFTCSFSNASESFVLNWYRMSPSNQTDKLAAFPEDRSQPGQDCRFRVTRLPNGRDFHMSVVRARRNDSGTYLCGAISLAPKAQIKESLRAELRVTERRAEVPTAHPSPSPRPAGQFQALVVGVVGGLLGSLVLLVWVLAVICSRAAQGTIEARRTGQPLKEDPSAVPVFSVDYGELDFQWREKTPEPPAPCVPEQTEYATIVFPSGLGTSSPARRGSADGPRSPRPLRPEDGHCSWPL
The experiment in a line: FACS cell binding on CHO cells expressing cynomolgus PD-1. The method, then:
as §1
The affinity of the IgGs for cell-surface expressed cynomolgus PD-1 were measured according to Example 6, above.

Numbering of substitutions follows the chain as printed.

T2 sequence (Q15116 25-288 limits assumed): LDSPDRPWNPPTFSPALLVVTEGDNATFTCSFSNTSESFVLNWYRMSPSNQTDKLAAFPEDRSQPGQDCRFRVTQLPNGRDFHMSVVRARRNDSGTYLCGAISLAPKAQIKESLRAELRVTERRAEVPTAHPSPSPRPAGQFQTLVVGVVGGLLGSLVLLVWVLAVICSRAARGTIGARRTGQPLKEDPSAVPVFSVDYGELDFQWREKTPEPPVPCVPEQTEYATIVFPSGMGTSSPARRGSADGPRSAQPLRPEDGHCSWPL
T1 sequence (Q15116 25-167 limits assumed): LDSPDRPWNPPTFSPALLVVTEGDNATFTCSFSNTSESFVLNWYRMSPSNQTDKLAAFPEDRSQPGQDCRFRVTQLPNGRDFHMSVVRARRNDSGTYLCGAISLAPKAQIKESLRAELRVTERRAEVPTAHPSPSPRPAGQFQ

B1: m1B10 scFv (scFv)
scFv: MSDVQLQESGPGLVKPSQSLSLTCTVTGHSITSDYAWNWIRQFPGNKLEWMGYISYSGRTSYNPSLTSRISITRDTSKNQFFLQLNSVTTEDTATYYCARGYALDYWGQGTSVTVSSGGGGSGGGGSGGGGSQIVLSQSPAILSASPGEKVTMTCRTSSSVNYMHWFQQKPGSSPKPWIYATSKLASGVPARFSGSGSGTSYSLTISRVEAEDAATYFCQQWISDPWTFGGGTKLEIKGSGDYKDDDDKGSGHHHHHH
notes: Mouse single-chain antibody, whole chain with FlagHis tag
What is called Kd is the constant that tells how readily two partners part at equilibrium. Low values mean tighter binding, high ones weaker binding. The koff is the rate constant with which the complex falls apart. A lower koff goes with a long-lived complex. For orientation: kon means the second-order rate constant of association. A low value points to slow association. With B1, in experiment [1], the Kd was determined as 12.8 nM, the koff came to 0.00239 s⁻¹ and the kon amounted to 186000 M⁻¹ s⁻¹.

B2: h1E9-2 (VH3-21-Vκ3-11) scFv (scFv)
scFv: MEVQLVESGGGLVKPGGSLRLSCAASGFTFSTFGMSWVRQAPGKGLEWVSTISGGGSDTYYPDSVQGRFTISRDNAKNSLYLQMNSLRAEDTAVYYCARQGYDVYSWFAYWGQGTLVTVSSGGGGSGGGGSGGGGSEIVLTQSPATLSLSPGERATLSCRASESVDNSGISFMSWYQQKPGQAPRLLIYTASNQGSGIPARFSGSGSGTDFTLTISSLEPEDFAVYYCQQSKEVPWTFGQGTKVEIKGSGDYKDDDDKGSGHHHHHH
notes: Whole scFv chain with FlagHis tag
In experiment [1], B2 had a Kd of 38.5 nM, a koff of 0.00182 s⁻¹ and a kon of 47400 M⁻¹ s⁻¹.

B3: h1E9-5 (VH3-7-Vκ3-11) scFv (scFv)
scFv: B2 scFv with K14Q, S50A
notes: as for B2
For B3, in experiment [1], the Kd came out at 3.15 nM, the koff was 0.000628 s⁻¹ and the kon was found to be 200000 M⁻¹ s⁻¹.

B4: h1E9-HC3 × h1E9-LC3 IgG (antibody)
heavy: not shown
light: MEIVLTQSPGTLSLSPGERATLSCRASESVDNSGISFMSWYQQKPGQAPRLLIYTASNQGSGIPDRFSGSGSGTDFTLTISRLEPEDFAVYYCQQSKEVPWTFGQGTKVEIKRTVAAPSVFIFPPSDEQLKSGTASVVCLLNNFYPREAKVQWKVDNALQSGNSQESVTEQDSKDSTYSLSSTLTLSKADYEKHKVYACEVTHQGLSSPVTKSFNRGEC
notes: Humanized IgG; heavy chain with C-terminal FlagHis tag
For the molecule B4, the results for the Kd in experiment [2], in experiment [3] and in experiment [4] were 16.9 nM, 12 nM and 8 nM, respectively.

B5: h1E9-HC2 × h1E9-LC3 IgG (antibody)
heavy: not shown
light: B4 light
notes: as for B4
On to B5, for which the Kd in experiment [2] was 10.9 nM; in experiment [3], 9 nM; in experiment [4], 9 nM.

B6: h1E9-HC1 × h1E9-LC3 IgG (antibody)
heavy: not shown
light: B4 light
notes: as for B4
B6: the results for the Kd in experiment [2], in experiment [3] and in experiment [4] were 6.38 nM, 12 nM and 15 nM, respectively.

B7: h1E9-5-IgG-HC-FLAG-HIS × h1E9-LC3 IgG (antibody)
heavy: not shown
light: B4 light
notes: also called h1E9-5 HC × h1E9-LC3
As for B7, the Kd in experiment [2] turned out to be 16.3 nM; in experiment [3], 11 nM; in experiment [4], 9 nM.

B8: h1E9-1 (VH3-21-Vκ1-9) scFv (scFv)
scFv: MEVQLVESGGGLVKPGGSLRLSCAASGFTFSTFGMSWVRQAPGKGLEWVSTISGGGSDTYYPDSVQGRFTISRDNAKNSLYLQMNSLRAEDTAVYYCARQGYDVYSWFAYWGQGTLVTVSSGGGGSGGGGSGGGGSDIQLTQSPSFLSASVGDRVTITCRASESVDNSGISFMSWYQQKPGKAPKLLIYTASNQGSGVPSRFSGSGSGTEFTLTISSLQPEDFATYYCQQSKEVPWTFGQGTKVEIKGSGDYKDDDDKGSGHHHHHH
notes: as for B2
In experiment [1], B8 gave a Kd of 2.58 nM, a koff of 0.000468 s⁻¹ and a kon of 182000 M⁻¹ s⁻¹.

B9: h1E9-4 (VH3-7-Vκ1-9) scFv (scFv)
scFv: B8 scFv with K14Q, S50A
notes: as for B2
Take B9: in experiment [1], the Kd was determined as 3.66 nM, the koff came to 0.000679 s⁻¹ and the kon was determined as 185000 M⁻¹ s⁻¹.

B10: h1E9-HC3 × h1E9-LC1 IgG (antibody)
heavy: not shown
light: MDIQLTQSPSSLSASVGDRVTITCRASESVDNSGISFMSWYQQKPGKAPKLLIYTASNQGSGVPSRFSGSGSGTDFTFTISSLQPEDIATYYCQQSKEVPWTFGQGTKVEIKRTVAAPSVFIFPPSDEQLKSGTASVVCLLNNFYPREAKVQWKVDNALQSGNSQESVTEQDSKDSTYSLSSTLTLSKADYEKHKVYACEVTHQGLSSPVTKSFNRGEC
notes: as for B4
B10: the values for the Kd in experiment [2], in experiment [3] and in experiment [4] were 3.6 nM, 8 nM and 4 nM, respectively.

B11: h1E9-HC2 × h1E9-LC1 IgG (antibody)
heavy: not shown
light: B10 light
notes: as for B4
As to B11, the Kd in experiment [2] was found to be 3.11 nM; in experiment [3], 7 nM; in experiment [4] it was 6 nM.

B12: h1E9-HC1 × h1E9-LC1 IgG (antibody)
heavy: not shown
light: B10 light
notes: as for B4
With B12, the values for the Kd in experiment [2], in experiment [3] and in experiment [4] were 5.08 nM, 6 nM and 7 nM, respectively.

B13: h1E9-5-IgG-HC-FLAG-HIS × h1E9-LC1 IgG (antibody)
heavy: not shown
light: B10 light
notes: also called h1E9-5 HC × h1E9-LC1
As to B13, the Kd in experiment [2] stood at 3.7 nM; in experiment [3], 9 nM; in experiment [4], 4 nM.

B14: h4B10-3 (VH3-15-Vκ4-1) scFv (scFv)
scFv: MEVQLVESGGGLVKPGGSLRLSCAASGFTFSTYGMSWVRQAPGKGLEWVATISGGGSNTYYSDSVKGRFTISRDDSKNTLYLQMNSLKTEDTAVYYCARQRDSAWFASWGQGTLVTVSSGGGGSGGGGSGGGGSDIVMTQSPDSLAVSLGERATINCRASENVDDYGVSFMNWYQQKPGQPPKLLIYPASNQGSGVPDRFSGSGSGTDFTLTISSLQAEDVAVYYCQQSKEVPWTFGGGTKLEIKGSGDYKDDDDKGSGHHHHHH
notes: as for B2
In experiment [1], B14 came in with a Kd of 1.2 nM, a koff of 0.000617 s⁻¹ and a kon of 513000 M⁻¹ s⁻¹.

B15: h4B10-1 (VH3-15-Vκ3-11) scFv (scFv)
scFv: MEVQLVESGGGLVKPGGSLRLSCAASGFTFSTYGMSWVRQAPGKGLEWVATISGGGSNTYYSDSVKGRFTISRDDSKNTLYLQMNSLKTEDTAVYYCARQRDSAWFASWGQGTLVTVSSGGGGSGGGGSGGGGSEIVLTQSPATLSLSPGERATLSCRASENVDDYGVSFMNWYQQKPGQAPRLLIYPASNQGSGIPARFSGSGSGTDFTLTISSLEPEDFAVYYCQQSKEVPWTFGQGTKVEIKGSGDYKDDDDKGSGHHHHHH
notes: as for B2
Consider B15, for which, in experiment [1], the Kd was 2.47 nM, the koff came to 0.00299 s⁻¹ and the kon stood at 1.21e+06 M⁻¹ s⁻¹.

B16: h4B10-2 (VH3-15-Vκ3-20) scFv (scFv)
scFv: B15 scFv with A143G, A198D, S215R
notes: as for B2
Take B16: in experiment [1], binding was characterised by a dissociation constant (Kd) of 2.79 nM, the koff is 0.00324 s⁻¹ and the kon turned out to be 1.16e+06 M⁻¹ s⁻¹.

B17: m4B10 scFv (scFv)
scFv: MEVKLVESGGGLVKPGGSLKLSCAASGFTFSTYGMSWVRQTPEKRLQWVATISGGGSNTYYSDSVKGRFTISRDNAKNNLYLQMSSLRSEDTALYYCARQRDSAWFASWGQGTLVTVSAGGGGSGGGGSGGGGSDIVLTQSPASLAVSLGQRATISCRASENVDDYGVSFMNWFQQKPGQPPKLLIYPASNQGSGVPARFSGSGSGTDFSLNIHPMEEDDTAMYFCQQSKEVPWTFGGGTKLEIKGSGDYKDDDDKGSGHHHHHH
notes: as for B1
In experiment [1], B17 yielded a Kd of 5.14 nM, a koff of 0.000417 s⁻¹ and a kon of 81200 M⁻¹ s⁻¹.
